Fewer inactive variants are shown than the library holds.
B1: TPR 5TU (parent)
chain: GGAUCUUCUCGAUCUAACAAAAAAGACAAAUCUGCCACAAAGCUUGAGAGCAUCUUCGGAUGCAGAGGCGGCAGCCUUCGGUGGCGCGAUAGCGCCAACGUUCUCAACUAUGACACGCAAAACGCGUGCUCCGUUGAAUGGAGUUUAUCAUG

Variants of: B1
Test: polymerase ribozyme fitness, log enrichment relative to wild type (log ratio); higher = more active; in vitro selection for triplet polymerase activity
Procedure, shortened: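 Each subunit of a heterodimeric triplet polymerase ribozyme was mutagenized into a library by PCR, transcribed, and subjected to one round of in vitro selection, run in triplicate. Libraries were annealed with a biotinylated primer, the partner subunit and triplets, incubated frozen at −7 °C, and extended constructs were gel-excised, captured on streptavidin beads and recovered by RT-PCR. Input and output libraries were sequenced on Illumina, keeping genotypes with ≥10 input reads and ≥1 read per output. Fitness is log base 2 of genotype enrichment divided by wild-type enrichment, from inverse-variance-weighted replicate averages.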

Variant	polymerase ribozyme fitness (log ratio)
A22C C38U G81U C87G U144A	≤ -4.2
A22G A23U C35A C75A C95G	≤ -4.2
A22C C85G U109A	-3.43
A22G A106G A122C G124U	-0.81
A22U A41U	0.0369
A22C G50A C63A C69G A89G U127G G141U A142U	≤ -4.2
A23C C96G	-3.81
A22G A52G G128C	-3.48
A22C C27U U44A A47C U82C C95U A142C	≤ -4.2
A22G G88A C96U	≤ -4.2
A22G C72A G86C C87A A110U U127C C132A U146G	≤ -4.2
A22U G83C	-1.73
A22U C76U U102G	-3.01
A23C C87G A91G C99A C103G	≤ -4.2
A22U G25A A41C A91G G94C	≤ -4.2
A22C C63U G67C G84U A98C G128C U144A U151A	≤ -4.2
A22U A66C C85G	≤ -4.2
A22U C35G C76G G92A C105U	≤ -4.2
A22G C72G C87U C93A C99A	≤ -4.2
A23C G42U A137U	≤ -4.2
A22U U144A	0.777
A23G A24U C27G U55A G92U	-3.98
A22U A41G G81A C87U C99U A119G G152A	-2.3
A22U U45A G68A A122G G140U U146A	≤ -4.2

Variant	polymerase ribozyme fitness (log ratio)
A22U G34A G74U G94A A119C G143A	≤ -4.2
A23G A41U C76G G80A A89U G124U	≤ -4.2
A22G G42C A52C G58A G68U C87G A142C	≤ -4.2
A22G G83A C105A	-3.83
A22U C38U C57U G94C G126U	-0.0445
A22G A28G A52U G80A C93G U101C A113U G140U	≤ -4.2
A22G C36G G92A A137G	≤ -4.2
A22U A28G G80C C99U C108A G140C	≤ -4.2
A22U U82A	0.472
A22U A49U	-0.913
A22C G46C G83C	-3.01
A22C C75G G88U A91G A110G C116A G136A	≤ -4.2
A22G C36G G81U A89C A97C C116A	≤ -4.2
A23G A91U G140C	≤ -4.2
A22U A47U C96U U148A	-4.14
A22U U55A C85G	-2.29
A23C G46C A47G G84U C87A C93U U109G	≤ -4.2
A22G C85G A150G	-3.09
A22U A30U C32A U78G G88A G117U U139G	≤ -4.2
A22U G46A A115G	-1.54
A22G C96U C114U A115U	≤ -4.2
A22C C38U G58U A60C C85A C87U G133A G140U	≤ -4.2
A22C G25A C51U A66C C85G C93U C116A	≤ -4.2
A23C A37G U53A A66G G88U U130A U146A	≤ -4.2

Variant	polymerase ribozyme fitness (log ratio)
A22C C85U	-0.656
A22C C85A	-1.08
A22G G70U C118U	-3.77
A22G A110G	-3.28
A22G A52U C85U U109G	-3.97
A22G A30U C36G G83C U146G	≤ -4.2
A22U A41U A60U A106U	-4.16
A22U U31C C32U	-3
A23G C27U C125A G143U	≤ -4.2
A22G G50U U56G G58U C76U A122G	-4.16
A23C A24C U61G A110U	≤ -4.2
A22G G83A A91U G100U	≤ -4.2
A22G U31C U44A C95G A150G	≤ -4.2
A22C U53G G94A A119G	-1.81
A23C G62C C85G U134A U148C	≤ -4.2
A23C C43A A52U A119C U135G U139A G140A A142G	≤ -4.2
A23G C32G G70A C85G	≤ -4.2
A22C G50U G67U G74U G92C C149G	≤ -4.2
A23G C27G A40U C75U G81C G94C U101A U109A	≤ -4.2
A22G C36U C87U	-3.06
A22U C54U U55A	0.0331
A22U A41G C93U A107U C108U C129U G133U A142C	≤ -4.2
A22G C93U	-0.637
A22G C93A	-1.55

Variant	polymerase ribozyme fitness (log ratio)
A22G A24U C63G	2.39
A22G C27A A29G C38U G50C C72U G84A C118A	≤ -4.2
A22G G86C	-1.67
A22U G50U C96G U145G	-0.544
A22G C57A G59C A60C	-2.03
A22U U61A C96U	-0.569
A23C U53A G83C A91G A147U	≤ -4.2
A22U C93A	-2.34
A22G A24U U55A C75G C76A C95G G124U G136U	≤ -4.2
A23C A29U G68C U82G G133U U134A A138U	≤ -4.2
A23G C36U G50U G100A A107G C118G	≤ -4.2
A22U U56A G92A	-3.22
A22U G46C A73U	-3.61
A23C A41C C75A G84A A115U G152A	≤ -4.2
A23C C27G A60G A97C G124U	≤ -4.2
A22G U31G C54U C96G A115G C123G A137C	≤ -4.2
A22U A40U G42C C75A U90G	≤ -4.2
A22U A23G G50C G74C	≤ -4.2
A22U A120G U144A	0.42
A22U A30G G46C G50C A52C U55G C72U U82A C87A G88C U90A C99U	≤ -4.2
A22G A39C U56A G80U	≤ -4.2
A22U A49G C54U C85U	-0.721
A22C U55G A60G U101A C118G	-0.937
A22C G141U	1.81

Variant	polymerase ribozyme fitness (log ratio)
A23G	-1.78
A23C	-3.48
A22U G42C G80A A91G C95G A98U	≤ -4.2
A23G A29U U61G C99U	≤ -4.2
A23G A52G C57U C95A C96G U102G A107G G141A	≤ -4.2
A22U A26C G62C C87A C116G A147U	≤ -4.2
A22U A73C G92U A110G U111C G141C	≤ -4.2
A23C A98U A113U	-4.18
A23C A41U G68U C93U A106G	≤ -4.2
A22G C36A G48A C95G G140C	≤ -4.2
A23C A29U C38U C54A G84A A98U A106G A137U	≤ -4.2
A22G G59A A60C C85A G94A C105U G126A	-4.1
A22C G59C G83A A89C	-1.16
A22U A28U C57U U77G C85G G92U	≤ -4.2
A22C G92C	-1.73
A23C A24U C57U G58A U61A C93G C103U C118U	≤ -4.2
A22U A40G G84A A119G	-2.75
A23G A37G A39G U44A A64U C75U C95U C108A A142U	≤ -4.2
A22U A23G G50A G86A C116G U130G C131G	≤ -4.2
A22G G59A	-0.246
A22G C76U	0.868
A23C C87U G112U	-3.99
A22G G83C A98U C114U	-3.19
A22U A24U G58C A89U G143C	-2.7

Variant	polymerase ribozyme fitness (log ratio)
A22C G92C U101G C108A A120U	-4.07
A22C U45A	-2.58
A22C C51U G84U	-2.78
A22G C85U	-0.836
A22G C85G	-2.32
A22U A52C G65A C132G G140U	-3.17
A22C C43U C51U C76A C93A C125G	≤ -4.2
A22U G48C C51U C116G G124A A150G	≤ -4.2
A22G G58A A120G C123A C129G	-3.06
A22U A37G A41G G48C G94U	≤ -4.2
A23C U44C A64C G92C A97U	≤ -4.2
A22U U55A C96U	-0.172
A23C U44A U45A G74A A91G	≤ -4.2
A22G A41C G62U C93A C95U C105A G112U C123G U134C G140A G141U	≤ -4.2
A23C C35G G58A C95A C99A C149U	≤ -4.2
A22C C69G G81C	-1.85
A22C C69U C93A U144A	-3.99
A22U G141A	2.05
A22C U56A C57G G86U A142G	-3.37
A22U C36A G83A U145A	≤ -4.2
A22U A39U A41G A52C G83U G94A G152C	-4.02
A23C C75G C103U	≤ -4.2
A22U A47U U53G U55A C57U G68A G86C C99U A138C U148G	≤ -4.2
A22G C51U U78G C95U A107G U146C	≤ -4.2

Variant	polymerase ribozyme fitness (log ratio)
A22U U127A	-3.54
A23C U55A U82C G136U	≤ -4.2
A22U C76G C87G U101G G140C	-4.19
A22U U148A	-2.76
A22U C103G A110C	≤ -4.2
A22U C99A	0.261
A22U C99U	-0.0944
A22G A39G U61A G88C A121C U146G	≤ -4.2
A22U C35U A47U G59U G67A C132A G136U	≤ -4.2
A22C C69A G80C C85U A89U A142G	≤ -4.2
A23C C43U U53G G81C C87A G143A	≤ -4.2
A22G C54U U56A C76U G94C U145A	-0.624
A22U C51U A137G A147C	-2.48
A22C C35A U55A C57U G86U A119U	≤ -4.2
A22G G84A A91C C103G U104G	≤ -4.2
A23C U33A A41G U45A C87G C103G	≤ -4.2
A22U A47C C54G G58U	-0.551
A22C G58C G70U U134C	-3.68
A22U C32A G42A G48A A52G U148A	≤ -4.2
A22G A40C U139G	0.649
A23C U55A C87G C114G G133U G136U	≤ -4.2
A22C U33G G50C U78A C87A G126A U135A U144G	-3.83
A23G A41C U90G A110G	≤ -4.2
